The text below walks through data of article PMC10267678, “Proteomic Profiling of Extracellular Matrix Components from Patient Metastases Identifies Consistently Elevated Proteins for Developing Nanobodies That Target Primary Tumors and Metastases” (Cancer Research, 2023).

In assay [1] the target is T1, mouse TNC on tissue sections of lung metastases derived from murine TNBC cell line 4T1 (Mus musculus (4T1 metastases in BALB/c), UniProt Q80YX1).
T1 construct: tenascin-C, mouse, endogenous in 4T1 lung metastases; source: endogenous, 4T1 lung metastases in BALB/c mice, tissue sections
In words: immunostaining of cells or tissue; IHC with the nanobodies on tissue sections of lung metastases (LM2 in NSG mice; 4T1 in BALB/c mice). To be noted: one partner purified.

Assay [2] concerns the target T2, human TNC in the ECM of tumors and lung metastases derived from human TNBC cell line LM2 (Homo sapiens (LM2 cells), UniProt P24821).
T2 construct: tenascin-C, human, made by LM2 human TNBC cells in xenografts; also called hTNC; TNC fibrils; source: endogenous, ECM of LM2 (LM2-TGL-ZsGreen) tumors and lung metastases in NSG mice
In words: two-photon microscopy of resected organs after intravenous injection of labelled nanobody; Alexa-647 labelled nanobodies injected via the tail vein into NSG mice with LM2-TGL-ZsGreen tumors; organs resected 2 hours after injection and imaged. Particulars: one partner purified.

Assay [3] addresses T3, full-length human TNC protein (Homo sapiens, UniProt P24821).
T3 construct: tenascin-C, human, full-length recombinant protein (Sigma); also called human tenascin-C; hTNC; source: bought: Sigma-Aldrich (purified, recombinant)
In words: far-Western, overlay or dot blot; immunoblot of human TNC protein probed with the nanobodies. To be noted: both partners purified. A general note: A western blot detects proteins with antibodies after separation by electrophoresis.

T1 sequence (Q80YX1 23-2110): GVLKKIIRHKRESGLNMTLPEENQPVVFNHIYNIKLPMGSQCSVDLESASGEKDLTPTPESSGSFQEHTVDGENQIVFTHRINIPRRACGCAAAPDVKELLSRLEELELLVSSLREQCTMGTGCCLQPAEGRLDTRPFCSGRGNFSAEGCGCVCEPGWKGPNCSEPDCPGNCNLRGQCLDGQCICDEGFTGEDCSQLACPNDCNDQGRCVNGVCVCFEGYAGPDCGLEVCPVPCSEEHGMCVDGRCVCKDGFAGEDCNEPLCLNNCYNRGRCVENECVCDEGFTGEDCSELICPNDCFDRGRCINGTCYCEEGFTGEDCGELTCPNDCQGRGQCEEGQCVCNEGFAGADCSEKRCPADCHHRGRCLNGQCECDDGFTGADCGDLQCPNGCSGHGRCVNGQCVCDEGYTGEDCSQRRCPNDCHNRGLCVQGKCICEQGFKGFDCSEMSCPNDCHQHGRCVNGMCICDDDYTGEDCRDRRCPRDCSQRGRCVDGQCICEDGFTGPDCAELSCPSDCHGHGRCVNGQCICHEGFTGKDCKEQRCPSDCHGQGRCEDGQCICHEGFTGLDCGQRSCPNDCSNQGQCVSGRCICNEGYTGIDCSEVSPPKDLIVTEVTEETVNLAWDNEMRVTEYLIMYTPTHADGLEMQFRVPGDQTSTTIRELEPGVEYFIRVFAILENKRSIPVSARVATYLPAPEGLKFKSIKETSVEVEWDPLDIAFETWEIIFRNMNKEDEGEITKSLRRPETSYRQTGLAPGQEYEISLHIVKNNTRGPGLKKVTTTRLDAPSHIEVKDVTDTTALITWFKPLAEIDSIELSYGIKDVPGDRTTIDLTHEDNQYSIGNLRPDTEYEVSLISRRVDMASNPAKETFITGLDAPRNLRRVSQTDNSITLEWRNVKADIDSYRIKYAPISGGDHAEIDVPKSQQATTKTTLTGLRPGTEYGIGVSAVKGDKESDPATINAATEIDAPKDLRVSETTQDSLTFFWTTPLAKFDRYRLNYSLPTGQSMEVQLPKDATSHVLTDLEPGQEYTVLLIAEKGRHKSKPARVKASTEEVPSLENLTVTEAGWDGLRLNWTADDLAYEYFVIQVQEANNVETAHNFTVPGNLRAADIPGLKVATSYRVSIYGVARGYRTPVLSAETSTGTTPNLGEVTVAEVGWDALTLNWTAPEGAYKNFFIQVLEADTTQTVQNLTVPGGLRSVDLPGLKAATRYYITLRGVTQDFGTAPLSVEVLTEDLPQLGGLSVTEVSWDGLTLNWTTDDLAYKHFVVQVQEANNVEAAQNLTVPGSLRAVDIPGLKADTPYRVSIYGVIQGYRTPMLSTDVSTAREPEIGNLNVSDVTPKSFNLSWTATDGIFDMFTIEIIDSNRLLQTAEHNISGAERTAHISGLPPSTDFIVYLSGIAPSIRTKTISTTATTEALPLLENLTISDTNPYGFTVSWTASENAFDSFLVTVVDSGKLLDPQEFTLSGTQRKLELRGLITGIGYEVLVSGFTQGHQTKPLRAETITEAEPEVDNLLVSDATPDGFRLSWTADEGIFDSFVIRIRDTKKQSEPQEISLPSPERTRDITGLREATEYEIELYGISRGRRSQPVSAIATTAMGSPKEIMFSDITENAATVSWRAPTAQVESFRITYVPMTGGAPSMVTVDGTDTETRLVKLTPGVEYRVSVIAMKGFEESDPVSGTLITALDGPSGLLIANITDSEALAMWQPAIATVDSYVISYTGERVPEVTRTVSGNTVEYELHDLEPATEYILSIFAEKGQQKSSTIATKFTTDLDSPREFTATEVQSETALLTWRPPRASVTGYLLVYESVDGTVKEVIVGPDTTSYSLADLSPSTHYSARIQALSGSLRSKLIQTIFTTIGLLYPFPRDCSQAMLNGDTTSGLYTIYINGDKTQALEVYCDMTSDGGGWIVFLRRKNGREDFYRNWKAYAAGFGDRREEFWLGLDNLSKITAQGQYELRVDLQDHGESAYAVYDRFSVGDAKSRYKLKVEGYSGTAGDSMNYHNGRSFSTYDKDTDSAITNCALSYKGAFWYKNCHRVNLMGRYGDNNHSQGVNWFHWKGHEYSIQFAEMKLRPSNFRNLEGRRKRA
T3 sequence (P24821 23-2201): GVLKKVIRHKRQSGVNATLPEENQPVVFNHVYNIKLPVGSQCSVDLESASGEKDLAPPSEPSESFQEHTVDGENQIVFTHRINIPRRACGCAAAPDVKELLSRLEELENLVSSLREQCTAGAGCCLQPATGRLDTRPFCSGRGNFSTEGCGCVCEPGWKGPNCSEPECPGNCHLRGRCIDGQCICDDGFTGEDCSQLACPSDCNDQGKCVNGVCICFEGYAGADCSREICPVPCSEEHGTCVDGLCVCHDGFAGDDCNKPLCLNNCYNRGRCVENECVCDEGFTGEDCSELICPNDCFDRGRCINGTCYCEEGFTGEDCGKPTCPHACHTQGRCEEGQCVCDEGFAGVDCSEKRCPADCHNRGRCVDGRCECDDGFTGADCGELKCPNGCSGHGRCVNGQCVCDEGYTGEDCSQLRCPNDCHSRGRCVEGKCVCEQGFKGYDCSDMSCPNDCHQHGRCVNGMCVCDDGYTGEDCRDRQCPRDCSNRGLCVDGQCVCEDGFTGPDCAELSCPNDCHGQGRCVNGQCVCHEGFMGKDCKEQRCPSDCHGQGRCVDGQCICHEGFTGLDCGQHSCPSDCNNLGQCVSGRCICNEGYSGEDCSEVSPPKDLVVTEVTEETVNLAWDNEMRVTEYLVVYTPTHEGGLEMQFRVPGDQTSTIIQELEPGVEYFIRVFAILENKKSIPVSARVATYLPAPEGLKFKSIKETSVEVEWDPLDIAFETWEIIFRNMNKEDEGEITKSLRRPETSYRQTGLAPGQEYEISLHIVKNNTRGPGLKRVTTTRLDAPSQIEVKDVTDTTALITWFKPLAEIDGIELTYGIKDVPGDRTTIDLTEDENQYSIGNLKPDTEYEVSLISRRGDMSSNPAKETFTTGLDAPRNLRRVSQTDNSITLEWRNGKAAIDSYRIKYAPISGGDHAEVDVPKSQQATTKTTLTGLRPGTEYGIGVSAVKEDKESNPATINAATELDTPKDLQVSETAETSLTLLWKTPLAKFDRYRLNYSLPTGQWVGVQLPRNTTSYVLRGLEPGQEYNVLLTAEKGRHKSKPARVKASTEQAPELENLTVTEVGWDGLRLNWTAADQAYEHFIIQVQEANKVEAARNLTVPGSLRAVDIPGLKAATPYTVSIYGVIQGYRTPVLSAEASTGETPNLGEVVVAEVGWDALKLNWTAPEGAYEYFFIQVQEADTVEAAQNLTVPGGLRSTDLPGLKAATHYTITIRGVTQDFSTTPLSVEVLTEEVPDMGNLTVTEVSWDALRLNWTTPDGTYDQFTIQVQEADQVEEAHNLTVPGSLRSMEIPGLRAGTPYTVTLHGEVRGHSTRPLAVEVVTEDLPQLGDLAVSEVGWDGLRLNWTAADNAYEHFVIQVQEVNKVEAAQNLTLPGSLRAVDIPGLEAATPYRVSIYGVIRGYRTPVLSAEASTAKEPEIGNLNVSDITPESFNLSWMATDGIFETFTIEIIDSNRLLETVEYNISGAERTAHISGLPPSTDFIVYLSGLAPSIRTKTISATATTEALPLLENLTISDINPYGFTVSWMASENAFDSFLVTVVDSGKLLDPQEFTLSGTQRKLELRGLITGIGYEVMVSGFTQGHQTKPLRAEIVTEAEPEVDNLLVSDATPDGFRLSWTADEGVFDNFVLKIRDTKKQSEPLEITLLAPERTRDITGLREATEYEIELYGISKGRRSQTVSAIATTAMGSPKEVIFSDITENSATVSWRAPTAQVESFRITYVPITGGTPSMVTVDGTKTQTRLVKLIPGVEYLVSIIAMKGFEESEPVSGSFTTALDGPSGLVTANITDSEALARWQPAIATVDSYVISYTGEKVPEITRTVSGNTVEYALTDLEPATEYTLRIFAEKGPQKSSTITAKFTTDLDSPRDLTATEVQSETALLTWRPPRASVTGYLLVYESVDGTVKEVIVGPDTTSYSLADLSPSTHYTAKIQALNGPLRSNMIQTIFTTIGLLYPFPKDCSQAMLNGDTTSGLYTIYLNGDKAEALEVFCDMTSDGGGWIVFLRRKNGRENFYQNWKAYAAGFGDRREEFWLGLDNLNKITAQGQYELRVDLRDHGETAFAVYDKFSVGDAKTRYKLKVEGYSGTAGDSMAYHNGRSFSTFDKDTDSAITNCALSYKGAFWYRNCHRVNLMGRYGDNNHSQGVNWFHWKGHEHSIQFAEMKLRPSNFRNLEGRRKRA
T2 sequence (P24821 23-2201): as above

B1: NJT3 (VHH)
VHH: QVQLVETGGGLAQAGGSLRLSCAASGRTLSGYAMGWFRQAPGKEREFVAAISWSGRNTYYDYTVQGRFTISKDNAKNTVNLQMNSLKPEDTAVYYCAVSRSLDEFGDGYEMDYWGDGTQVTVSS
notes: The label differs between experiments (biotin, Alexa-647); also called anti-TNC nanobody NJT3; 64Cu-NJT3; source: selected from alpaca phage-display library B; expressed and purified by methods previously described; not shown: sortase tag, C-terminal, kept
For the molecule B1, the binding result in assay [1] is given as “no binding”; in assay [2], “binds”; in assay [3] it was “binds”.

B2: NJT4 (VHH)
VHH: QVQLVESGGGLVQPGGSLRLSCAASGFTFSSYTMRWYRQAPGKERELVAFIGVAGGSTKYADSVKGRFTISRDNTKNTVYLQMNTLKPEDTAVYYCYAPLTPYWGQGTQVTVSS
notes: The label differs between experiments (biotin, Alexa-647); also called anti-TNC nanobody NJT4; 64Cu-NJT4; source: selected from alpaca phage-display library B; expressed and purified by methods previously described; not shown: sortase tag, C-terminal, kept
For the molecule B2, the binding result is given as “no binding” in assay [1], “binds” in assay [2] and “binds” in assay [3].

B3: NJT6 (VHH)
VHH: QVQLVETGGDLVQPGGSLRLSCAASGLTLDYYAIGWVRQAPGKEREGVSCITPQDGNTYYDDSVMGRFTILRDNAKNMVYLQMNNLKPEDTAVYFCAAAGALTLDPSEYEYWGQGTQVTVSS
notes: The label differs between experiments (biotin, Alexa-647); also called anti-TNC nanobody NJT6; 64Cu-NJT6; source: selected from alpaca phage-display library B; expressed and purified by methods previously described; not shown: sortase tag, C-terminal, kept
Take B3: the binding result is reported as “no binding” in assay [1], “binds” in assay [2] and “binds” in assay [3].
